Laboratory results from US20240002501A1.

What was measured:
[1] = molecular target: L1-CAM on L1-CAM(+) human tumor cells (human) (UniProt P32004); assay: flow cytometry, MESO 34 mesothelioma cells (control)
[2] = molecular target: L1-CAM on L1-CAM(+) human tumor cells (human) (UniProt P32004); assay: flow cytometry, MSTO-21H mesothelioma cells (control)
[3] = molecular target: L1-CAM on L1-CAM(+) human tumor cells (human) (UniProt P32004); assay: flow cytometry, MESO 11 mesothelioma cells (control)
[4] = molecular target: L1-CAM on L1-CAM(+) human tumor cells (human) (UniProt P32004); assay: flow cytometry, JMN mesothelioma cells (control)
[5] = molecular target: L1-CAM on L1-CAM(+) human tumor cells (human) (UniProt P32004); assay: flow cytometry, MESO 9 mesothelioma cells (control)
[6] = molecular target: L1-CAM on L1-CAM(+) human tumor cells (human) (UniProt P32004); assay: flow cytometry, VAMT mesothelioma cells (control)
[7] = molecular target: L1-CAM on L1-CAM(+) human tumor cells (human) (UniProt P32004); assay: flow cytometry, MESO 47 mesothelioma cells (control)
[8] = molecular target: L1-CAM on L1-CAM(+) human tumor cells (human) (UniProt P32004); assay: flow cytometry, NCI-H2052 mesothelioma cells (control)
[9] = molecular target: L1-CAM on L1-CAM(+) human tumor cells (human) (UniProt P32004); assay: flow cytometry, MSTO mesothelioma cells (control)
[10] = molecular target: L1-CAM on L1-CAM(+) human tumor cells (human) (UniProt P32004); assay: flow cytometry, MESO 10 mesothelioma cells (control)
[11] = molecular target: L1-CAM on L1-CAM(+) human tumor cells (human) (UniProt P32004); assay: flow cytometry, SKEFM EWS cells (control)
[12] = molecular target: L1-CAM on L1-CAM(+) human tumor cells (human) (UniProt P32004); assay: flow cytometry, 5838 EWS cells (control)
[13] = molecular target: L1-CAM on L1-CAM(+) human tumor cells (human) (UniProt P32004); assay: flow cytometry, NCI-H82 SCLC cells (control)
[14] = molecular target: L1-CAM on L1-CAM(+) human tumor cells (human) (UniProt P32004); assay: flow cytometry, RH48 rhabdomyosarcoma cells (control)
[15] = molecular target: L1-CAM on L1-CAM(+) human tumor cells (human) (UniProt P32004); assay: flow cytometry, M14 melanoma cells (control)
[16] = molecular target: L1-CAM on L1-CAM(+) human tumor cells (human) (UniProt P32004); assay: flow cytometry, SKEAW EWS cells (control)
[17] = molecular target: L1-CAM on L1-CAM(+) human tumor cells (human) (UniProt P32004); assay: flow cytometry, NCI-H524 SCLC cells (control)
[18] = molecular target: L1-CAM on L1-CAM(+) human tumor cells (human) (UniProt P32004); assay: flow cytometry, HTB-41 A253 submaxillary salivary gland cells (control)
[19] = molecular target: L1-CAM on L1-CAM(+) human tumor cells (human) (UniProt P32004); assay: flow cytometry, SKERT EWS cells (control)
[20] = molecular target: L1-CAM on L1-CAM(+) human tumor cells (human) (UniProt P32004); assay: flow cytometry, RH28 rhabdomyosarcoma cells (control)
[21] = molecular target: L1-CAM on L1-CAM(+) human tumor cells (human) (UniProt P32004); assay: flow cytometry, HTB24 breast CA cells (control)
[22] = molecular target: L1-CAM on L1-CAM(+) human tumor cells (human) (UniProt P32004); assay: flow cytometry, RG143B osteosarcoma cells (control)
[23] = molecular target: L1-CAM on L1-CAM(+) human tumor cells (human) (UniProt P32004); assay: flow cytometry, A4573 EWS cells (control)
[24] = molecular target: L1-CAM on L1-CAM(+) human tumor cells (human) (UniProt P32004); assay: flow cytometry, NCI-H345 SCLC cells (control)
[25] = molecular target: L1-CAM on L1-CAM(+) human tumor cells (human) (UniProt P32004); assay: flow cytometry, NCI-H69 SCLC cells (control)
[26] = molecular target: L1-CAM on L1-CAM(+) human tumor cells (human) (UniProt P32004); assay: flow cytometry, SW480 CRC cells (control)
[27] = molecular target: L1-CAM on L1-CAM(+) human tumor cells (human) (UniProt P32004); assay: flow cytometry, U2OS osteosarcoma cells (control)
[28] = molecular target: L1-CAM on L1-CAM(+) human tumor cells (human) (UniProt P32004); assay: flow cytometry, RH41 rhabdomyosarcoma cells (control)
[29] = molecular target: L1-CAM on L1-CAM(+) human tumor cells (human) (UniProt P32004); assay: flow cytometry, TC32 EWS cells (control)
[30] = molecular target: L1-CAM on L1-CAM(+) human tumor cells (human) (UniProt P32004); assay: flow cytometry, HTB67 melanoma cells (control)
[31] = molecular target: L1-CAM on L1-CAM(+) human tumor cells (human) (UniProt P32004); assay: flow cytometry, RH30 rhabdomyosarcoma cells (control)
[32] = molecular target: L1-CAM on L1-CAM(+) human tumor cells (human) (UniProt P32004); assay: flow cytometry, AU565 breast CA cells (control)
[33] = molecular target: L1-CAM on L1-CAM(+) human tumor cells (human) (UniProt P32004); assay: flow cytometry, SKNMC EWS cells (control)
[34] = molecular target: L1-CAM on L1-CAM(+) human tumor cells (human) (UniProt P32004); assay: flow cytometry, UM SCC 22B HNSCC cells (control)
[35] = molecular target: L1-CAM on L1-CAM(+) human tumor cells (human) (UniProt P32004); assay: flow cytometry, SKNCM NB cells (control)
[36] = molecular target: L1-CAM on L1-CAM(+) human tumor cells (human) (UniProt P32004); assay: flow cytometry, ACC 104 M-07e AML cells (control)
[37] = molecular target: L1-CAM on L1-CAM(+) human tumor cells (human) (UniProt P32004); assay: flow cytometry, SKEPR EWS cells (control)
[38] = molecular target: L1-CAM on L1-CAM(+) human tumor cells (human) (UniProt P32004); assay: flow cytometry, TC71 EWS cells (control)
[39] = molecular target: L1-CAM on L1-CAM(+) human tumor cells (human) (UniProt P32004); assay: flow cytometry, HCC1954 breast CA cells (control)
[40] = molecular target: L1-CAM on L1-CAM(+) human tumor cells (human) (UniProt P32004); assay: flow cytometry, LAN-1 NB cells (control)
[41] = molecular target: L1-CAM on L1-CAM(+) human tumor cells (human) (UniProt P32004); assay: flow cytometry, SKELP EWS cells (control)
[42] = molecular target: L1-CAM on L1-CAM(+) human tumor cells (human) (UniProt P32004); assay: flow cytometry, HPB-T ALL cells (control)
[43] = molecular target: L1-CAM on L1-CAM(+) human tumor cells (human) (UniProt P32004); assay: flow cytometry, CHP-100 EWS cells (control)
[44] = molecular target: L1-CAM on L1-CAM(+) human tumor cells (human) (UniProt P32004); assay: flow cytometry, HTB82 rhabdomyosarcoma cells (control)
[45] = molecular target: L1-CAM on L1-CAM(+) human tumor cells (human) (UniProt P32004); assay: flow cytometry, 8402 ALL cells (control)
[46] = molecular target: L1-CAM on L1-CAM(+) human tumor cells (human) (UniProt P32004); assay: flow cytometry, THP-1 AML cells (control)
[47] = molecular target: L1-CAM on L1-CAM(+) human tumor cells (human) (UniProt P32004); assay: flow cytometry, RH36 rhabdomyosarcoma cells (control)
[48] = molecular target: L1-CAM on L1-CAM(+) human tumor cells (human) (UniProt P32004); assay: flow cytometry, SKES-1 EWS cells (control)
[49] = molecular target: L1-CAM on L1-CAM(+) human tumor cells (human) (UniProt P32004); assay: flow cytometry, MCF7 breast CA cells (control)
[50] = molecular target: L1-CAM on L1-CAM(+) human tumor cells (human) (UniProt P32004); assay: flow cytometry, SKNMM LUC NB cells (control)
[51] = molecular target: L1-CAM on L1-CAM(+) human tumor cells (human) (UniProt P32004); assay: flow cytometry, SKMEL28 melanoma cells (control)
[52] = molecular target: L1-CAM on L1-CAM(+) human tumor cells (human) (UniProt P32004); assay: flow cytometry, HTB25 breast CA cells (control)
[53] = molecular target: L1-CAM on L1-CAM(+) human tumor cells (human) (UniProt P32004); assay: flow cytometry, IMR32 LUC NB cells (control)
[54] = molecular target: L1-CAM on L1-CAM(+) human tumor cells (human) (UniProt P32004); assay: flow cytometry, CRL1427 osteosarcoma cells (control)

Chain of L1-CAM on L1-CAM(+) human tumor cells (human) (P32004 20-1257 limits assumed): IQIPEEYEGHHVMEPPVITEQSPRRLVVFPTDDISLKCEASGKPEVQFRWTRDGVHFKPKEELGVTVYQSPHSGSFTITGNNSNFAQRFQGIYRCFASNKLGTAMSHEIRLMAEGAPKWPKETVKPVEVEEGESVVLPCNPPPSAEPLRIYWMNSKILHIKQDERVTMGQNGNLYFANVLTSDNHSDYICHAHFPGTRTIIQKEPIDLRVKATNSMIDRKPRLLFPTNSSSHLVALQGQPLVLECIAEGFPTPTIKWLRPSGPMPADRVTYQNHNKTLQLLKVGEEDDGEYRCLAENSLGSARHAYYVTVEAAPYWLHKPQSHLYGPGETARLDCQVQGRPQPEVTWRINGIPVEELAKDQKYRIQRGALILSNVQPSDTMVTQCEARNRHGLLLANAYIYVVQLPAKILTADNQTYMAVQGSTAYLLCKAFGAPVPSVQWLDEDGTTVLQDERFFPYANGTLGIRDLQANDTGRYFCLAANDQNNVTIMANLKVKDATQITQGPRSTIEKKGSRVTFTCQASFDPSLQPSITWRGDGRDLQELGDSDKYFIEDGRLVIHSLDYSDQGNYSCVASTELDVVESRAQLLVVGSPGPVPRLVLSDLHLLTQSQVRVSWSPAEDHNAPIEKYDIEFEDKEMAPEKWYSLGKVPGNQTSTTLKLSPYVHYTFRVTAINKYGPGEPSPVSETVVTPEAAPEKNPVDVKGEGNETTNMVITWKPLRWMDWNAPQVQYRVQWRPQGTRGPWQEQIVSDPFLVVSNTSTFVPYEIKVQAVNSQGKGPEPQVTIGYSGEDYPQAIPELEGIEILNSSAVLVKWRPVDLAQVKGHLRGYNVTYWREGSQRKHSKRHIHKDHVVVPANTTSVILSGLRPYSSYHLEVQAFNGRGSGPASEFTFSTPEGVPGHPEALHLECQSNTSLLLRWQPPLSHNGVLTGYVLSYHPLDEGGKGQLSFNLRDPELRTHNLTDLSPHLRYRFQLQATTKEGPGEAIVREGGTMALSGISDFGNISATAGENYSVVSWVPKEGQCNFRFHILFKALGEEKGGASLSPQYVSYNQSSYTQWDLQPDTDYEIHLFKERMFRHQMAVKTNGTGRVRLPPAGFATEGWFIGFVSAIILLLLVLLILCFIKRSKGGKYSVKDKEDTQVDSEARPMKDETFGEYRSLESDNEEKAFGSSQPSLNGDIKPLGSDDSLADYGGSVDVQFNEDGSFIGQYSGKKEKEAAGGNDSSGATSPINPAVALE

In the case of MOPC 21 (antibody), the MFI [1] is reported as 5, the MFI [2] is reported as 5 and the MFI [3] is reported as 5. It also gave an MFI [4] of 5, an MFI [5] of 5 and an MFI [6] of 5. The MFI [7] was 5, the MFI [8] was 5 and the MFI [9] was 5. The MFI [10] was 5.

Rituxan (antibody) was tested, and the MFI [11] was 5, the MFI [12] was 5 and the MFI [13] was 5. The MFI [14] was 5, the MFI [15] was 5 and the MFI [16] was 5. It also gave an MFI [17] of 3, an MFI [18] of 5 and an MFI [19] of 5. For the same substance, the MFI [20] was 5, the MFI [21] was 6 and the MFI [22] was 5. For the same substance, the MFI [23] was 5, the MFI [24] was 3 and the MFI [25] was 4. The MFI [26] was 5, the MFI [27] was 5 and the MFI [28] was 5. The MFI [29] was 5, the MFI [30] was 5 and the MFI [31] was 5. For the same substance, the MFI [32] was 5, the MFI [33] was 5 and the MFI [34] was 5. The MFI [35] was 5, the MFI [36] was 5 and the MFI [37] was 3. The MFI [38] was 5, the MFI [39] was 5 and the MFI [40] was 6. It also gave an MFI [41] of 5, an MFI [42] of 5 and an MFI [43] of 5. The MFI [44] was 5, the MFI [45] was 4 and the MFI [46] was 5. It also gave an MFI [47] of 5, an MFI [48] of 5 and an MFI [49] of 5. The MFI [50] was 4, the MFI [51] was 5 and the MFI [52] was 5. The MFI [53] was 4 and the MFI [54] was 5.
